Results reported in the nanobody polyreactivity screen of Harvey et al. (2022).

Experiment: yeast display, Sf9 membrane polyspecificity reagent, FACS + sequencing; frameworks hold sequencing errors
Outline: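 Galactose induction of a Saccharomyces cerevisiae BJ5465 synthetic nanobody display library ran 36–48 hours. The cells were then stained for 1 hour at 4 °C with 10% biotinylated, detergent-solubilized Sf9 membrane reagent, pulled down on streptavidin microbeads and FACS-sorted into low and high (top ~1%) gates on expression and reagent-binding fluorescence. Labels for polyreactivity follow the gate of origin.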

Sequence	polyreactivity (PSR sort gate)
QVQLVESGGGLVQAGGSLRLSCAASRRILRVYAMGWYRQAPGKERELVASISSGGSTNYADSVKGRFTISRDNAKNTVYFQMKSLKPEDTAVYYCNRRWVHTYDYWGQGTQVTVSS	high polyreactivity
QVQLVESGGGLVQAGGSLRLSCAASRSIFRGYAMGWYRQAPVKETELVAAITQRAGSTYYADSVKGRFTISRDNAKNTVYLQMISLKPEDTAVYYCAADFYYAYYWGQGTQVTVSS	low polyreactivity
QVQLVESGGGLVQAGGSLRLSCAASRSTSPAYAMGWYRQAPGKERELVAVITGSGASTYYADSVKGRFTISRDNAKNTVYLQMNSLKPEDTAVYYCAADVGFGVVFYDYWGQGTQVTVSS	low polyreactivity
QVQLVESGGGLVQAGGSLRLSCAASRSTSYDYAMGWYRQAPGKERELVAAISGSSSTTYYADSVKGRFTISRDNAKNTVSLQMNSLKPEDTAVYYCNAVTTSGSGYGYWGQGTQVTVSS	low polyreactivity
QVQLVESGGGLVQAGGSLRLSCAASRYTFTLYAMGWYRKAPGKEWELLAAISRSGGSTYYADSVKGRFTISRDNAKITVYLQMNSLKPEDTAVYYCAADKYFAWGYPSGLWYDYWGQGTQVTVSS	high polyreactivity
QVQLVESGGGLVQAGGSLRLSCAASVFTFTHYAMGWYRQSAGKERELVAAISTSGVSTYYSDSVKGRFTISRDNAKNTVYLQMNSLKPEDTAVYYCAARRDGWFQWGYYYWGQGTQVTVSS	low polyreactivity
QVQLVESGGGLVQAGGSLRLSCAASVFTFTRYVMGWYRQAPVKERELVAAISGSGGSTNYADSVKGRFTISRDNAKNTVYLQMNSLKPEDTVVYYCAARFVGSRYRFDYWGQRTQVTVSS	high polyreactivity
QVQLVESGGGLVQAGGSLRLSCAASVFTIPRYAMGWYRQAPGKETELFAAITSGGSTYYADSVKGRFTISRDNAKNTVYLQMNSLKPEDTAVYYWASRAVWSSWGSRYDSWGHGTQVTVSS	high polyreactivity
QVQLVESGGGLVQAGGSLRLSCAASVIIFYPYAMGWSRQAPGKEMELVAAITARSANTYYADSVKGRFTISRDNAKNTVYLQMNSLKPEDTAVYYCAAAIYSYRTPYYYWGQGTQVTVSS	high polyreactivity
QVQLVESGGGLVQAGGSLRLSCAASVITSPYAMGWYRQAPGKERELVAAISWSGSSTYYADSVKGRFTISRDNAKNTVYLQINSLKPEDTAVYYCATLVSDSRSRRFGYEYWGQGSQVTVSS	high polyreactivity
QVQLVESGGGLVQAGGSLRLSCAASVLTFYEYAMGWYRQAPGKERELVASISGRAASTDYADSVKGRFTISRDNAKNTVYLQMNSLKPEDTAVYYCAVGVVGDIDTDGYWGQGTQVTVSS	low polyreactivity
QVQLVESGGGLVQAGGSLRLSCAASVNIFESYGMGWYRQAPGKERELVATINTSSGSTYYADSVKGRFTISRDNAKNTVYLQMNSLKPEDTAVYYCSAEWYPYPWGYGYSGQGTQVTVSS	low polyreactivity
QVQLVESGGGLVQAGGSLRLSCAASVRIFAKYAMGWYRQAPGKERELVAAIRWRGGNTYYADSVKGRFTISRDNAKNTVYLQMNSLKPEDTAVYYCAAGTWLGRGYIGQVESWGQGTQVTVSS	high polyreactivity
QVQLVESGGGLVQAGGSLRLSCAASVRIFGYARGWYRQAPGKERELVAAITSSGGRTYYADSVKGLFTISRDNAKNTVYLQMNSLKPEDTAVYYCAKDASVSYSTNFRYYYWGQGTQVTVSS	high polyreactivity
QVQLVESGGGLVQAGGSLRLSCAASVRIFLWYAMGWYRQAPGKERELVAAITKSAGTTYYADSVKGRFTISRDNAKNTVYLQMNSLKPEDTAVYYCGAYYWLYAHWRFGNYWGQGTQVTVSS	low polyreactivity
QVQLVESGGGLVQAGGSLRLSCAASVRTFKYYAMGWYRQAPGKERELVASISRGGGSTYYADSVKGRFTISRDNAKNTVYLQMNSLKPDDTAVYYCAAYLRTRYIYCGQGTQVTVSS	high polyreactivity
QVQLVESGGGLVQAGGSLRLSCAASVRTFLYNAMGWYRQAPGKERELVASITTSGGSTYYADSVKGRFTISRDNAKNTVYLQMNSLKPEDTAVYYCAAGLPKWYDYGRLVKYNYWGQGTQVTVSS	low polyreactivity
QVQLVESGGGLVQAGGSLRLSCAASVRTFYFYTMGWYRQSPGKERELVATIRWSAGSTYYADSVKGRFTISRDNAKNTVYLQMNSLKPEDTAVYYCNADPFVYSSWQYGYWGQGTQVTVSS	high polyreactivity
QVQLVESGGGLVQAGGSLRLSCAASVRTQPRYAMGRYRQAPGKERDLVAAISRSGGSTHYADSVKGRFTISRDNAKNTVYFQMNSLKPEDTAVYYCATQRYPYRFYAFQYYYWGQGTQVTVSS	high polyreactivity
QVQLVESGGGLVQAGGSLRLSCAASVSIFDLYAMRWYIQAPGKERELVAAISWSDSRTYYADSVKGRFTISRDNATNTVYLQKNSLKPEDTAVYYCAADYRYPDNYGGYDYWGQGTQLTVSS	low polyreactivity
QVQLVESGGGLVQAGGSLRLSCAASVSTFSVYAMGWYRQAPGKERELVADISENGGSTYYADSVKGLFTISRDNAKNTVYLQMNSLKPEHTAVYYCAALYHSTSHTYSYWGQGTQVTVSS	low polyreactivity

Sequence	polyreactivity (PSR sort gate)
QVQLVESGGGLVQAGGSLRLSCAATGFTFIPYAMGWYRQAPGKERELVAGITIGGRTNNADSVKGRFTISRDNAKNTVYLQMNSLKPEDTAVYYCNAGVYLYVTSKYWYYYWGQGTQVTVSS	high polyreactivity
QVQLVESGGGLVQAGGSLRLSCAATGFTIAWYTMGWYRQAPGKERELVAAISLNGGSKYYADSVKGRFTISRDNAKNTVYLQMNSLKPDDTAVYYCAKGYRWPYYPYDYWGQGTQVTVSS	low polyreactivity
QVQLVESGGGLVQAGGSLRLSCAATGFTYYRNARGSYRQAPGKERELVAAISGSGGSTYYADSVKGRFTISRDNATNTVYLQMNSLKPEDTAVYYCAAAAGSYNSGNGYWGLGTQVTVSS	high polyreactivity
QVQLVESGGGLVQAGGSLRLSCAATGGTFTFYAMGWYRQAPGKERELVATINWSGGSTYYADSVKGRFTISRDNAKITVYLQMNSLKPEDTAVYYCNAAWPYKSVEYWGQGTQVTVSS	low polyreactivity
QVQLVESGGGLVQAGGSLRLSCAATGIIFRYAMGWYRQAPGKERELVAAIRKSDGSTYYADSVKGRFTISRDNAKNTVYLQMNSLKPEDTAVYYCATDIVYGNRKGFYYWGQGTQVTVSS	high polyreactivity
QVQLVESGGGLVQAGGSLRLSCAATGIIFSWYAMGWYRQAPVKERELVATISSGAHTYYADSVKGRFTISRDNAKNTVYLQMNRLKPEDTAVYYCGAANEFGVVWAQFDYWGQGPQVTVSS	low polyreactivity
QVQLVESGGGLVQAGGSLRLSCAATGIIFYRNAMGWYRQAPGKERELVASISKRGGSTYYADSVKGRFTISRDNAKNTVYLQMNSLKPEDNAVYYCNTRGGIARQFEIYSWGQGTQVTLSS	high polyreactivity
QVQLVESGGGLVQAGGSLRLSCAATGIIYGYVMGWYRQAPGKERELVAVITRSGGSTYYADSVKGRFTISRDNAMNSVYLQMNSLKPEDTAVYYCAAQGIDILYDYWGQGTQVTVSS	low polyreactivity
QVQLVESGGGLVQAGGSLRLSCAATGINFRAYAMGWYRQAPGKERELVAAISSGGNTNYADSVKGRFTISRDNAKNTVYLQMNSLKPEDTAVYYCAAGYFWGRIKYYYWGQGTQVTVSS	high polyreactivity
QVQLVESGGGLVQAGGSLRLSCAATGLILGRNAMGWYRQAPGKERELVAAITGSGSTNYADSVKGRFTISRDNAKNTVYLQMNSLKPEDTAVYYCAADVRLDPTGLDYLDYDYWGQGTQVTVSS	low polyreactivity
QVQLVESGGGLVQAGGSLRLSCAATGRIFVNAMGWYRQAPGKERELVAAINTRGGSTYYADSVKGRFTISRDNAKNSVYLQMNSLKPEDTAVYYCAARFYTSSRYNYWGQGTQVTVSS	high polyreactivity
QVQLVESGGGLVQAGGSLRLSCAATGRIFYRYSMGWYRQAPGKERELVAAIRYSGGTTYADSVKGRFTISRDNAKNTVYLQMNSLKPEDTAVFYCAARASLWGGFESWGQGTQVTVSS	high polyreactivity
QVQLVESGGGLVQAGGSLRLSCAATGRNFAVNAIGWYRQAPGKERELVASIRWSGGGTYYADSVKGRFTISRDNAKNTVYLQMNCLKPEDTAVYYCKALRKTYRLDYWGQGTQVTVSS	high polyreactivity
QVQLVESGGGLVQAGGSLRLSCAATGRTFIPYAMGWYRQAPGKERELVAAIRTTGGSTYYADSVKGRFTISRDNAKNTVYLQMNSLKPEDTAVYYCAATSRQRPYDYWGQGTQVTVSS	high polyreactivity
QVQLVESGGGLVQAGGSLRLSCAATGRTFRVYAIGWYRHAHAKEREFVATISVRGGSTYYADSVKGRFTISRDNAKNTVYLQMNSLKPEDTAVYYCAADSYPYVYALYDYWGQGTQVTVSS	low polyreactivity
QVQLVESGGGLVQAGGSLRLSCAATGRTFYPYVMGWYRQAAGKERDLVASITDSGGNTYYADSVKGRFTISRDHAKNTVYLQMNSLKPEDTAVYYCNASFYYPSRRGTFQYNYWGHGTQVTVSS	low polyreactivity
QVQLVESGGGLVQAGGSLRLSCAATGRTFYVYAMGWYRQAPGKERELVADITWSGGSTYADSVKGRFTISRDNAKNTVYLQMNSLKPEDTAVYYCAAEWQTWYGVEYDYWGQGTQVTVSS	high polyreactivity
QVQLVESGGGLVQAGGSLRLSCAATGRTLVLYAMGWYRQAPGKERELVAAITWSGDSTYYADSVKGRFSISRDNAKYTVYLQMKSLKPEDTAVYYCAATYLNAKRGLRYDYWGQGTQVSVSS	low polyreactivity
QVQLVESGGGLVQAGGSLRLSCAATGRTSFRYTMGWYRQAPGKERELVAGISGSGGRTYYADSVKGRVTISRDNAKNTVYLQMNSLKPEDTAVYYCAAAWYTSHAKGKGGYWGQGTQVTVSS	high polyreactivity
QVQLVESGGGLVQAGGSLRLSCAATGSILEYYVMGWYRLAPGKERELVAAIRGGGSTYYADAVKGRFTISRDNAKNSVYLQMNSLKPEDTAVEYCAKDSQPARDFDYWGQGTQVTVSS	low polyreactivity
